Source: PMC13480635

Experiments:
[1] = target: Trypanosoma brucei gambiense variant surface glycoprotein LiTat 1.3 (Lille Trypanozoon antigen type 1.3) (Trypanosoma brucei gambiense); experiment: SEC-MALS; Agilent Bio SEC-3 column, PBS; samples at 0.5 mg/mL and 5 mg/mL, 50 uL injected
[2] = target: Trypanosoma brucei gambiense variant surface glycoprotein LiTat 1.3 (Lille Trypanozoon antigen type 1.3) (Trypanosoma brucei gambiense); experiment: SAXS; SEC-SAXS, Shodex KW404-4F column, 20 mM HEPES, 150 mM NaCl, 3% glycerol, pH 7.4; 50 uL at 15.51 mg/mL injected; curve from the first (major) elution peak

Trypanosoma brucei gambiense variant surface glycoprotein LiTat 1.3 (Lille Trypanozoon antigen type 1.3) (natural protein)
stoichiometry N [1]: 3
stoichiometry N [2]: 3
